PMC2919706

Key:
Assay in all cases: EMSA
Rad52 = Rad52 (Saccharomyces cerevisiae, UniProt P06778)
Rad52 (K43,44,253R) = Rad52 (K43,44,253R) (Saccharomyces cerevisiae, UniProt P06778 1-471, K10R;K11R;K220R)
Rad52 (K253R) = Rad52 (K253R) (Saccharomyces cerevisiae, UniProt P06778 1-471, K220R)
Rad52 (K43,44R) = Rad52 (K43,44R) (Saccharomyces cerevisiae, UniProt P06778 1-471, K10R;K11R)

Measured: binding result

B1: 49-mer ssDNA (Oligo-3) (ssDNA)
DNA: AGCTACCATGCCTGCACGAATTAAGCAATTCGTAATCATGGTCATAGCT
binds: all assays above
